test system: Escherichia coli TOP10; test: shrunken log2 fold change of peptide-encoding DNA abundance (4.5 h post-induction vs induction); higher = less antimicrobial activity (less host growth inhibition); details: time post-induction: 4.5 h; library: site-saturation at positions 5, 18, 19, 20
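Also: peptides expressed intracellularly from a pBAD plasmid library in pooled LB shake-flask culture, induced with 0.3% L-arabinose, DNA abundance read by NGS, three biological replicates, DESeq2 with apeglm shrinkage.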

Sequence | shrunken log2 fold change
RRIRLRPPRLPRPRPRPSHDPRP | -0.385
RRIRCRPPRLPRPRPRPLMRPRP | 0.715
RRIRKRPPRLPRPRPRPTCMPRP | 0.576
RRIRSRPPRLPRPRPRPMCHPRP | -0.576
RRIRPRPPRLPRPRPRPRDCPRP | 0.277
RRIRPRPPRLPRPRPRPGDEPRP | 0.156
RRIRWRPPRLPRPRPRPMARPRP | 0.00968
RRIRRRPPRLPRPRPRPDDVPRP | 0.0443
RRIRDRPPRLPRPRPRPYTWPRP | 0.00489
RRIRSRPPRLPRPRPRPWWCPRP | 0.0769
RRIRWRPPRLPRPRPRPRSPPRP | 0.779
RRIRKRPPRLPRPRPRPFPPPRP | 0.33
RRIRKRPPRLPRPRPRPIDHPRP | -0.0104
RRIRCRPPRLPRPRPRPTRFPRP | 0.696
RRIRHRPPRLPRPRPRPIFRPRP | -0.173
RRIRGRPPRLPRPRPRPTYDPRP | 0.361
RRIRVRPPRLPRPRPRPITHPRP | -0.171
RRIRWRPPRLPRPRPRPSKIPRP | -0.152
RRIRVRPPRLPRPRPRPNWEPRP | 0.104
RRIRGRPPRLPRPRPRPQVVPRP | 0.0944
RRIRLRPPRLPRPRPRPVDRPRP | 0.584
RRIRIRPPRLPRPRPRPMFEPRP | -0.0768
RRIRIRPPRLPRPRPRPIKMPRP | -0.177
RRIRSRPPRLPRPRPRPHTNPRP | -0.335
RRIRERPPRLPRPRPRPVHHPRP | -0.954

Sequence | shrunken log2 fold change
RRIRHRPPRLPRPRPRPAHNPRP | -0.366
RRIRPRPPRLPRPRPRPMANPRP | 1.35
RRIRFRPPRLPRPRPRPFEGPRP | 0.0456
RRIRARPPRLPRPRPRPCCYPRP | 0.0589
RRIRTRPPRLPRPRPRPGEDPRP | 0.109
RRIRFRPPRLPRPRPRPTCCPRP | -0.0828
RRIRTRPPRLPRPRPRPSSCPRP | -0.222
RRIRNRPPRLPRPRPRPSIQPRP | -0.623
RRIRIRPPRLPRPRPRPRDFPRP | -0.157
RRIRMRPPRLPRPRPRPGDKPRP | 0.9
RRIRIRPPRLPRPRPRPMPMPRP | -0.0159
RRIRSRPPRLPRPRPRPCTLPRP | -0.399
RRIRRRPPRLPRPRPRPGHVPRP | -0.00681
RRIRGRPPRLPRPRPRPGNKPRP | -0.216
RRIRPRPPRLPRPRPRPCWHPRP | -0.261
RRIRYRPPRLPRPRPRPNRKPRP | -0.284
RRIRARPPRLPRPRPRPNNAPRP | 0.00673
RRIRMRPPRLPRPRPRPDLAPRP | 1.4
RRIRCRPPRLPRPRPRPESQPRP | -0.0239
RRIRKRPPRLPRPRPRPSVKPRP | -0.358
RRIRGRPPRLPRPRPRPKGMPRP | 0.442
RRIRTRPPRLPRPRPRPMNPPRP | -0.141
RRIRPRPPRLPRPRPRPSVQPRP | -0.0553
RRIRTRPPRLPRPRPRPGLAPRP | 0.308
RRIRGRPPRLPRPRPRPNQAPRP | -0.0774

Sequence | shrunken log2 fold change
RRIRTRPPRLPRPRPRPWLSPRP | -0.272
RRIRNRPPRLPRPRPRPQRAPRP | 0.0993
RRIRARPPRLPRPRPRPWMWPRP | 0.213
RRIRARPPRLPRPRPRPGYGPRP | 0.277
RRIRSRPPRLPRPRPRPPIRPRP | 0.129
RRIRERPPRLPRPRPRPKWPPRP | 0.016
RRIRRRPPRLPRPRPRPNNSPRP | -0.356
RRIRFRPPRLPRPRPRPRMVPRP | -0.157
RRIRLRPPRLPRPRPRPLIAPRP | -0.498
RRIRSRPPRLPRPRPRPKWDPRP | 0.172
RRIRNRPPRLPRPRPRPRVSPRP | 0.0988
RRIRSRPPRLPRPRPRPGDVPRP | 0.204
RRIRNRPPRLPRPRPRPANYPRP | -0.0161
RRIRHRPPRLPRPRPRPTRQPRP | 0.254
RRIRYRPPRLPRPRPRPWPMPRP | -0.0578
RRIRMRPPRLPRPRPRPMNRPRP | -0.24
RRIRDRPPRLPRPRPRPSFGPRP | -0.0644
RRIRCRPPRLPRPRPRPAAPPRP | 0.668
RRIRERPPRLPRPRPRPAIDPRP | -0.457
RRIRDRPPRLPRPRPRPTTSPRP | 0.335
RRIRCRPPRLPRPRPRPINWPRP | -0.407
RRIRFRPPRLPRPRPRPMVWPRP | 0.156
RRIRKRPPRLPRPRPRPWDHPRP | -0.0434
RRIRGRPPRLPRPRPRPNTPPRP | 0.237
RRIRVRPPRLPRPRPRPECKPRP | 0.0339

Sequence | shrunken log2 fold change
RRIRVRPPRLPRPRPRPQQLPRP | -0.0555
RRIRCRPPRLPRPRPRPPMMPRP | -0.0549
RRIRERPPRLPRPRPRPTSLPRP | -0.647
RRIRYRPPRLPRPRPRPTRQPRP | -0.00287
RRIRTRPPRLPRPRPRPNGVPRP | -0.0427
RRIRNRPPRLPRPRPRPQNNPRP | -0.734
RRIRIRPPRLPRPRPRPNLAPRP | -0.114
RRIRFRPPRLPRPRPRPQGWPRP | 0.466
RRIRMRPPRLPRPRPRPQTAPRP | 0.524
RRIRYRPPRLPRPRPRPWVTPRP | -0.477
RRIRVRPPRLPRPRPRPRKHPRP | 0.112
RRIRVRPPRLPRPRPRPWFGPRP | 0.0293
RRIRSRPPRLPRPRPRPAQSPRP | 0.234
RRIRRRPPRLPRPRPRPHCPPRP | 0.0475
RRIRFRPPRLPRPRPRPYHRPRP | 0.045
RRIRIRPPRLPRPRPRPRWIPRP | -0.0611
RRIRRRPPRLPRPRPRPKSHPRP | -0.172
RRIRYRPPRLPRPRPRPHQGPRP | -0.142
RRIRTRPPRLPRPRPRPQCQPRP | -0.0883
RRIRNRPPRLPRPRPRPRPEPRP | 0.295
RRIRLRPPRLPRPRPRPFHHPRP | -0.147
RRIRNRPPRLPRPRPRPDCGPRP | 0.0246
RRIRTRPPRLPRPRPRPCAKPRP | 0.423
RRIRQRPPRLPRPRPRPVYTPRP | -0.143
RRIRTRPPRLPRPRPRPGCDPRP | 0.256

Sequence | shrunken log2 fold change
RRIRFRPPRLPRPRPRPSEVPRP | -0.0167
RRIRKRPPRLPRPRPRPHIKPRP | -0.0411
RRIRMRPPRLPRPRPRPKVCPRP | 0.0971
RRIRQRPPRLPRPRPRPKLRPRP | -0.0665
RRIRHRPPRLPRPRPRPGEPPRP | -0.0215
RRIRVRPPRLPRPRPRPNISPRP | -0.321
RRIRPRPPRLPRPRPRPYEKPRP | -0.0835
RRIRGRPPRLPRPRPRPCYQPRP | 0.219
RRIRNRPPRLPRPRPRPRFPPRP | -0.365
RRIRMRPPRLPRPRPRPDIMPRP | 2.19
RRIRDRPPRLPRPRPRPHDDPRP | 0.014
RRIRPRPPRLPRPRPRPQARPRP | 0.208
RRIRNRPPRLPRPRPRPTEMPRP | -0.283
RRIRTRPPRLPRPRPRPLTCPRP | -0.809
RRIRWRPPRLPRPRPRPCPFPRP | -0.646
RRIRTRPPRLPRPRPRPLHMPRP | -0.369
RRIRFRPPRLPRPRPRPMNCPRP | -0.735
RRIRPRPPRLPRPRPRPYSYPRP | -0.228
RRIRKRPPRLPRPRPRPWAAPRP | 0.473
RRIRNRPPRLPRPRPRPLTCPRP | -0.149
RRIRPRPPRLPRPRPRPAPCPRP | 0.236
RRIRSRPPRLPRPRPRPPPHPRP | 0.752
RRIRVRPPRLPRPRPRPGHAPRP | 0.245
RRIRKRPPRLPRPRPRPRRQPRP | 0.333
RRIRYRPPRLPRPRPRPPNFPRP | 0.0401

Sequence | shrunken log2 fold change
RRIRRRPPRLPRPRPRPSPHPRP | 0.334
RRIRGRPPRLPRPRPRPPIHPRP | 0.108
RRIRQRPPRLPRPRPRPDWAPRP | -0.012
RRIRMRPPRLPRPRPRPNQQPRP | 0.0339
RRIRGRPPRLPRPRPRPKTNPRP | 0.779
RRIRYRPPRLPRPRPRPTWSPRP | -0.58
RRIRLRPPRLPRPRPRPNRSPRP | -0.0205
RRIRDRPPRLPRPRPRPSPTPRP | -0.0251
RRIRERPPRLPRPRPRPFFLPRP | -0.384
RRIRLRPPRLPRPRPRPGWHPRP | 0.13
RRIRTRPPRLPRPRPRPSNEPRP | -0.34
RRIRYRPPRLPRPRPRPQVWPRP | -0.0375
RRIRRRPPRLPRPRPRPGMNPRP | 0.00468
RRIRVRPPRLPRPRPRPKQCPRP | -0.141
RRIRGRPPRLPRPRPRPFRCPRP | 0.0939
RRIRCRPPRLPRPRPRPSCAPRP | -0.0944
RRIRARPPRLPRPRPRPMVHPRP | 0.0572
RRIRCRPPRLPRPRPRPPYFPRP | -0.07
RRIRKRPPRLPRPRPRPWMQPRP | -0.0134
RRIRPRPPRLPRPRPRPPTYPRP | -0.204
RRIRTRPPRLPRPRPRPMRWPRP | 0.313
RRIRKRPPRLPRPRPRPVFDPRP | 0.171
RRIRTRPPRLPRPRPRPDCPPRP | -0.245
RRIRGRPPRLPRPRPRPGKYPRP | -0.265
RRIRIRPPRLPRPRPRPITDPRP | -0.0192
